± gives the standard deviation.
Test: protein stability index of a GFP-peptide fusion (GPS, HEK-293T) (PSI 1-6); higher = more stable
[1] = treatment: DMSO, c terminus: a fixed tail appended
[2] = treatment: MLN4924 1 uM, 8 h, c terminus: a fixed tail appended
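Note: 24-mer peptide tiles fused after GFP, lentivirally expressed, FACS-sorted into six equal bins by GFP/DsRed ratio, decoded by Illumina sequencing, PSI is the read-weighted mean bin number.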

Row | Sequence | protein stability index [1] | protein stability index [2] | protein stability index (treatment: DMSO, c terminus: native) | protein stability index (treatment: MLN4924 1 uM, 8 h, c terminus: native)
1 | CLIRSLLRREPSERLTAPEILLHP [TRIB1] | 2.48 ± 0.21 | 2.2 ± 0.21 | – | –
2 | CLLICAEMYQVSRLQHICELFIIT [RHOBTB3] | 3.06 ± 0.38 | 3 ± 0.27 | – | –
3 | CLVKGIFYHCSNDDEGDSYSDNPC [SPRY1] | 2.61 ± 0.23 | 2.89 ± 0.15 | – | –
4 | CNVKYKRWALLSCRGKKPSRIYGQ [KLHDC10] | 2.21 ± 0.42 | 2.22 ± 0.37 | – | –
5 | CRFLLNSRVTDAAFNFLLVWYYCT [TMEM120A] | 2.85 ± 0.74 | 2.38 ± 0.48 | – | –
6 | CRLKKCFRAGMKKEAVQNERDRIS [HNF4A] | 3.22 ± 0.27 | 3.44 ± 0.25 | – | –
7 | CSIALLRALATSNARAQQRAAAQQ [GNAS] | 2.23 ± 0.23 | 2.27 ± 0.12 | – | –
8 | CSYTDLLPQDEGGGGYSSVRYSDC [KCNA4] | 2.67 ± 0.27 | 2.68 ± 0.24 | – | –
9 | CTNSPAIVRFSGQSRGVPAVSESY [FBXO34] | 3.21 ± 0.46 | 3.14 ± 0.45 | – | –
10 | CVNMDRSFACQCPEGHVLRSDGKT [MATN2] | 3.92 ± 0.21 | 4.22 ± 0.73 | – | –
11 | CVQCKMPVCYQCLEEGKHSSHEVK [TRIM9] | 4.08 ± 0.44 | 4.19 ± 0.45 | – | –
12 | CWYCNRDFDDEKILIQHQKAKHFK [ZNF207] | 4.59 ± 0.39 | 4.45 ± 0.22 | – | –
13 | CYDVYSPDKEEQLPFGPFNGTAWT [PKD2L1] | 2.75 ± 0.14 | 2.59 ± 0.12 | – | –
14 | DAELATRAIPELTKLLNDEDQVVV [CTNNB1] | 4.79 ± 0.22 | 4.8 ± 0.11 | – | –
15 | DALTKLEQGEPLWTLEDEIHSPAH [ZNF649] | 3.49 ± 0.35 | 3.65 ± 0.24 | – | –
16 | DASEAHESSSRGEAGAPGEEDIQG [CHGB] | 5.69 ± 0.3 | 5.56 ± 0.28 | – | –
17 | DASSSTSTSSSFPSSFPSSSSSSS [MAGEA10] | 5.07 ± 0.37 | 5.23 ± 0.085 | – | –
18 | DDDDHDDHEDNDKMNDSEGMDPER [NOL4L] | 5.54 ± 0.29 | 5.54 ± 0.23 | – | –
19 | DDEFFHFVLLCFAIGALLVCYHYY [TMEM40] | 2.27 ± 0.39 | 2.37 ± 0.88 | – | –
20 | DDEGDSYSDNPCSCSQSHCCSRYL [SPRY1] | 4.45 ± 0.21 | 4.57 ± 0.23 | – | –
21 | DDPSLLKEAKTKYPNYEFISDNSI [FUT8] | 3.58 ± 0.36 | 4.04 ± 0.53 | – | –
22 | DDSCLNNDIPHSIPLEQGSSCNGP [FAN1] | 5.17 ± 0.19 | 5.09 ± 0.1 | – | –
23 | DEEVSSLTCDALTELLAKITNTDV [CCND2] | 4.04 ± 0.44 | 4.28 ± 0.078 | – | –

Row | Sequence | protein stability index [1] | protein stability index [2] | protein stability index (treatment: DMSO, c terminus: native) | protein stability index (treatment: MLN4924 1 uM, 8 h, c terminus: native)
24 | DEMCANNDFVQVDPGQVGLINSNV [FAN1] | 4.82 ± 0.2 | 4.78 ± 0.35 | – | –
25 | DEPCAISGKWTFQRDSKRWSRLEE [DLC1] | 3.99 ± 0.14 | 3.91 ± 0.33 | – | –
26 | DFGLAKEYIDPETKKHIPYREHKS [CSNK1G1] | 4.26 ± 0.34 | 4.34 ± 0.086 | – | –
27 | DFVMSLTFPFKILGDSGLGPWQLN [P2RY14] | 3 ± 0.56 | 3.08 ± 0.74 | – | –
28 | DGEGAGPGEQGGGKLVLSSLPKRL [ESRRA] | 4.94 ± 0.14 | 4.68 ± 0.15 | – | –
29 | DGIDPFPLLMNRQRVPKVLVENAK [EFHC1] | 3.77 ± 0.24 | 3.97 ± 0.22 | – | –
30 | DGIPQVYYFGPCGKYNAMVLELLG [CSNK1G3] | 2.31 ± 0.58 | 2.27 ± 0.43 | – | –
31 | DITPLMAAANGGHVKIVKLLLAHK [ANKRD17] | 2.27 ± 0.2 | 2.33 ± 0.41 | – | –
32 | DIVDEDVKLMMSTLPKSLSLPTTA [MYBL2] | 3.9 ± 0.27 | 3.7 ± 0.27 | – | –
33 | DLERQNQEYQVLLDVRARLECEIN [KRT33B] | 3.39 ± 0.29 | 3.58 ± 0.22 | – | –
34 | DLIESDPDAWCDLSKFDLPEEPSA [MYBL2] | 5.01 ± 0.35 | 5.02 ± 0.17 | – | –
35 | DLISKSFQGSQGRAYLFNSVVNVG [YPEL3] | 2.16 ± 0.22 | 2.11 ± 0.19 | – | –
36 | DMKSLKQVLEMKNQQIHEQEKKIL [MTUS2] | 4.23 ± 0.046 | 4.31 ± 0.33 | – | –
37 | DMVQKSVSKTLPSTWSDPSVNISL [CLINT1] | 3.04 ± 0.19 | 3.2 ± 0.19 | – | –
38 | DMVSNIELPTRIHEEVYFEPSSSK [MIA2] | 3.68 ± 0.2 | 3.88 ± 0.39 | – | –
39 | DNAPAVLHPRPDWEHSAPQRLPRS [PCDHGC5] | 4.72 ± 0.17 | 4.81 ± 0.17 | – | –
40 | DNLSDLVMVRWNKSLEWSPWNCIL [IQUB] | 2.56 ± 0.76 | 2.39 ± 0.34 | – | –
41 | DNSLINQIENLNIQVEDIRIRAIL [LOXL2] | 2.59 ± 0.25 | 2.66 ± 0.17 | – | –
42 | DPLRSGTVLVSVTVFDANDNAPVF [PCDHGA10] | 2.73 ± 0.42 | 2.82 ± 0.6 | – | –
43 | DQTSLLVVDKETDNMYRLAHFSPF [PDZK1] | 2.61 ± 0.32 | 2.75 ± 0.26 | – | –
44 | DSDDPSVTLELSQLSMLPHLADLV [VDR] | 3.41 ± 0.31 | 3.62 ± 0.33 | – | –
45 | DSDSCQKCDQPFFWNFKQMWDSKK [WDFY2] | 3.64 ± 0.16 | 3.71 ± 0.081 | – | –
46 | DSRLMCSSVQKALFEEEDHVKKLQ [CCDC3] | 4.71 ± 0.16 | 4.74 ± 0.25 | – | –

Row | Sequence | protein stability index [1] | protein stability index [2] | protein stability index (treatment: DMSO, c terminus: native) | protein stability index (treatment: MLN4924 1 uM, 8 h, c terminus: native)
47 | DSYIPLHEDLLTRIGEATKPDGTV [NET1] | 4.5 ± 0.43 | 4.73 ± 0.28 | – | –
48 | DTGEEEEGGDESDLSSESSIKKKF [EHMT1] | 5.46 ± 0.32 | 5.3 ± 0.12 | – | –
49 | DTGETSMLKRPVLLHLHQTAHADE [STEAP1] | 4.63 ± 0.078 | 4.88 ± 0.18 | – | –
50 | DTPCTNRGLPLLKTDFGSCLLQPP [DLC1] | 3.41 ± 0.19 | 3.34 ± 0.34 | – | –
51 | DTYIVLAWISKIKGSPDVSASSDE [SMIM2] | 2.42 ± 0.6 | 2.41 ± 0.27 | – | –
52 | DVVALLINHGAEVTCKDKKGYTPL [ANKRD44] | 2.33 ± 0.55 | 2.27 ± 0.48 | – | –
53 | DYRKQLQYPNPLPVLSGAELEKAH [VPS39] | 4.5 ± 0.15 | 4.41 ± 0.12 | – | –
54 | EADSQEQGHPQTGCECEDGPDGQE [GAGE1] | 5.57 ± 0.28 | 5.57 ± 0.15 | – | –
55 | EAGAMTFHYIIEQGVCYLVLCEAA [SEC22B] | 3.08 ± 0.23 | 3.01 ± 0.33 | – | –
56 | EALAKWAEGRTGFPWIDAIMTQLR [CRY1] | 3 ± 0.085 | 2.73 ± 0.21 | – | –
57 | EALAVLEPYARLPPHKHVARPTEV [TRIB3] | 2.72 ± 0.36 | 2.77 ± 0.2 | – | –
58 | ECRNPQELESIRQDRDALHMEGLI [FEM1B] | 4.3 ± 0.16 | 4.31 ± 0.17 | – | –
59 | EDDDCDDDDDDDAQILPSRVQGGC [DRICH1] | 5.47 ± 0.22 | 5.43 ± 0.11 | – | –
60 | EDDWPRDVSLPRGAFPPRGPRPVQ [CDK4] | 4.57 ± 0.18 | 4.6 ± 0.24 | – | –
61 | EDQVPALEAPEDIGSTSESKDWEE [MIA2] | 5.8 ± 0.12 | 5.71 ± 0.27 | – | –
62 | EDQYIFIHDALLEAVTCGNTEVPA [PTPRD] | 3.1 ± 0.32 | 3.01 ± 0.31 | – | –
63 | EEEAASPEGKRVPKRLRCWEEEED [FANCE] | 5.4 ± 0.42 | 5.38 ± 0.21 | – | –
64 | EEFPKREDQEGSPPETSLPYKWVV [MYBL2] | 3.83 ± 0.33 | 3.99 ± 0.41 | – | –
65 | EEHSLEQVQSMVVGEVLKDIETAC [SPDEF] | 4.8 ± 0.26 | 4.85 ± 0.091 | – | –
66 | EEIKTWGTVFQELNKLYPTHACRE [TPH1] | 2.95 ± 0.23 | 3.02 ± 0.28 | – | –
67 | EEKRRREEEERLRREEEERRRIEE [ACBD3] | 5.53 ± 0.29 | 5.49 ± 0.28 | – | –
68 | EEPRPSRPRYKADVPDLQSVCSCT [KCNK9] | 4.62 ± 0.13 | 4.55 ± 0.19 | – | –
69 | EERASLAGNRNSMVIHIPEEPRPS [KCNK9] | 4.82 ± 0.13 | 4.94 ± 0.38 | – | –

Row | Sequence | protein stability index [1] | protein stability index [2] | protein stability index (treatment: DMSO, c terminus: native) | protein stability index (treatment: MLN4924 1 uM, 8 h, c terminus: native)
70 | EESRFCDAHLVLDGEEIPVQKNIL [GAN] | 4.73 ± 0.22 | 4.68 ± 0.073 | – | –
71 | EETGSRFHNCLIQLYCEKVQGLMK [VPS39] | 2.48 ± 0.45 | 2.45 ± 0.5 | – | –
72 | EEVKTPEEEMRSHYVAQTGILWLL [GAGE1] | 2.11 ± 0.31 | 2.44 ± 0.49 | – | –
73 | EFSVPFTEMKLRPRNFRSPAGGG [TNXB] | – | – | 3.4 ± 1.1 | 3.09 ± 1.1
74 | EGVIDSSDKEIVAEAERLDVKAMG [EIF5] | 5.34 ± 0.12 | 5.35 ± 0.15 | – | –
75 | EIENVKKQASNLETAIADAEQRGD [KRT71] | 5.29 ± 0.49 | 5.42 ± 0.3 | – | –
76 | EIITQSPGRSSVASPRRLSNVSSS [MAP2] | 3.43 ± 0.18 | 3.66 ± 0.2 | – | –
77 | EIYKRFLTRMTRVSEFLKVAEQVG [SNAP91] | 2.44 ± 0.63 | 2.45 ± 0.24 | – | –
78 | EKAAALERQLKVMASDHREALLDR [LRRC45] | 4.41 ± 0.17 | 4.49 ± 0.46 | – | –
79 | EKPYGCSECGKAFPRKSELTEHQR [ZNF649] | 3.95 ± 0.49 | 4.44 ± 0.52 | – | –
80 | ELAGVDTELLAERFYYQALSVAPQ [SMG5] | 2.68 ± 0.25 | 2.88 ± 0.16 | – | –
81 | ELHEECEGNHPSARKLTAQRRAST [NET1] | 4.92 ± 0.21 | 5.09 ± 0.15 | – | –
82 | ELHPESGEEAVTLVEDMQRELGRL [ZNF263] | 4.88 ± 0.41 | 5.13 ± 0.26 | – | –
83 | ELLCELGRPSMVWLSANPCPHCGD [PRAME] | 2.08 ± 0.043 | 2.28 ± 0.31 | – | –
84 | ELNKQVVSSSEQLQSCQAEIIELR [KRT34] | 3.82 ± 0.33 | 4.04 ± 0.53 | – | –
85 | ELSRSRKLYGQRERVWALAQEKAA [FCHSD1] | 3.04 ± 0.33 | 3.47 ± 0.22 | – | –
86 | ELTATFTKFDRDGNRILDEKEQEK [PKD2L1] | 5.38 ± 0.11 | 5.17 ± 0.18 | – | –
87 | ENANLQEYVEKETQEKKRLSRTNE [MTUS2] | 5.33 ± 0.45 | 5.35 ± 0.18 | – | –
88 | ENCTLVTTFRGHTGGVTALCWDPV [WDFY2] | 2.53 ± 0.32 | 2.38 ± 0.18 | – | –
89 | ENTCLLRGFSGGILAFLVLEAVAG [TSPAN10] | 3.27 ± 0.15 | 2.58 ± 0.41 | – | –
